Source: publication PMC5295013

Tested on: Gp90 D234A (DNA polymerase, exonuclease-deficient) (Pseudomonas aeruginosa phage PaP1)
Assay: SPR
Details: SPR (Biacore 3000, SA chip, steady-state fit): 40 mM Tris-HCl pH 7.5, 10 mM DTT, 50 mM potassium glutamate, room temperature, 20-600 nM protein, ternary assays …

TTTGCTACAGAGTTATGGTGACGATACGTC / TGAATTCTAATGTAGTATAGTAATCCGCTCTATCGGACGTATCGTCACCATAACTCTGTAGC [30-mer(dd)/62-mer 8-oxoG primer-template]
Kd (30 mM Mg2+, 1 mM dATP (ternary complex, mispair), 8-oxoG at template position 35 from 5' end (28th from 3' end, first templating base), primer 3'-terminal ddC): 45 nM | Kd (30 mM Mg2+, 1 mM dCTP (ternary complex), 8-oxoG at template position 35 from 5' end (28th from 3' end, first templating base), primer 3'-terminal ddC): 34 nM | Kd (no Mg2+, no dNTP (binary complex), 8-oxoG at template position 35 from 5' end (28th from 3' end, first templating base), primer 3'-terminal ddC): 116 nM

TTTGCTACAGAGTTATGGTGACGATACGTC / TGAATTCTAATGTAGTATAGTAATCCGCTCTATCGGACGTATCGTCACCATAACTCTGTAGC [30-mer(dd)/62-mer G primer-template]
Kd (30 mM Mg2+, 1 mM dCTP (ternary complex), primer 3'-terminal dideoxycytidine (ddC, chain terminator)): 11 nM | Kd (no Mg2+, no dNTP (binary complex), primer 3'-terminal dideoxycytidine (ddC, chain terminator)): 108 nM
